Here are results for three molecules from US20240293459A1 (published 2024).

Common to all, as to experiment: multimer staining
Test [1] has as its target SARS-CoV-2 NSP13 helicase; peptide NSP13-448 peptide on HLA-A*01:01 (human).
Test [2] addresses T1, SARS-CoV-2 NSP13 helicase; peptide NSP13-400 peptide on HLA-A*24:02 (human).
T1 peptide: VYIGDPAQL

Test [3] addresses T2, SARS-CoV-2 NSP13 helicase; peptide NSP13-242 peptide on HLA-A*02:01 (human).
T2 peptide: TLVPQEHYV

B1: NSP13-448 TCR (TCR, V domains shown)
Valpha: AQSVTQLGSHVSVSEGALVLLRCNYSSSVPPYLFWYVQYPNQGLQLLLKYTSAATLVKGINGFEAEFKKSETSFHLTKPSAHMSDAAEYFCAVSNSGGGADGLTFGKGTHLIIQP
Vbeta: DGGITQSPKYLFRKEGQNVTLSCEQNLNHDAMYWYRQDPGQGLRLIYYSQIVNDFQKGDIAEGYSVSREKKESFPLTVTSAQKNPTAFYLCASSIMAGGHGELFFGEGSRLTVL
As to B1, in test [1], the binding result is on record as “recognises”.

B2: NSP13-400 TCR (TCR, V domains shown)
Valpha: RKEVEQDPGPFNVPEGATVAFNCTYSNSASQSFFWYRQDCRKEPKLLMSVYSSGNEDGRFTAQLNRASQYISLLIRDSKLSDSATYLCVVKDSWGKLQFGAGTQVVVTP
Vbeta: DARVTQTPRHKVTEMGQEVTMRCQPILGHNTVFWYRQTMMQGLELLAYFRNRAPLDDSGMPKDRFSAEMPDATLATLKIQPSEPRDSAVYFCASGPSGGWNTIYFGEGSWLTVV
For B2, the binding result in test [2] is on record as “recognises”.

B3: NSP13-242 TCR (TCR, V domains shown)
Valpha: AQTVTQSQPEMSVQEAETVTLSCTYDTSENNYYLFWYKQPPSRQMILVIRQEAYKQQNATENRFSVNFQKAAKSFSLKISDSQLGDTAMYFCAFMNSNNARLMFGDGTQLVVKP
Vbeta: DAGITQSPRYKITETGRQVTLMCHQTWSHSYMFWYRQDLGHGLRLIYYSAAADITDKGEVPDGYVVSRSKTENFPLTLESATRSQTSVYFCASSPGSVPGGYTFGSGTRLTVV
In the case of B3, the binding result in test [3] is on record as “recognises”.
